The values below come from patent publication US20040091500A1.

Assay [1] deals with Serum IgE from a pool of birch allergic patients (human). The experiment in a line: fluid-phase IgE-inhibition assay.
Assay [2] has the same target. The experiment in a line: fluid-phase IgE-inhibition assay; competitor biotinylated Bet v 1 no. 2801.

B1: Bet v 1 mutant Asn28Thr+Lys32Gln (protein)
chain: GVFNYETETTSVIPAARLFKAFILDGDTLFPQVAPQAISSVENIEGNGGPGTIKKISFPEGLPFKYVKDRVDEVDHTNFKYNYSVIEGGPIGDTLEKISNEIKIVATPDGGSILKISNKYHTKGDHEVKAEQVKASKEMGETLLRAVESYLLAHSDAYN
As for B1, in assay [1], the factor by which affinity is lowered vs recombinant Bet v 1 was 2 fold.

B2: Recombinant Bet v 1 No. 2801 (protein)
chain: GVFNYETETTSVIPAARLFKAFILDGDNLFPKVAPQAISSVENIEGNGGPGTIKKISFPEGLPFKYVKDRVDEVDHTNFKYNYSVIEGGPIGDTLEKISNEIKIVATPDGGSILKISNKYHTKGDHEVKAEQVKASKEMGETLLRAVESYLLAHSDAYN
Turning to B2, in assay [2], the amount to reach 80% inhibition came to 20 ng.

B3: Bet v 1 Glu45Ser mutant (protein)
chain: GVFNYETETTSVIPAARLFKAFILDGDNLFPKVAPQAISSVENISGNGGPGTIKKISFPEGLPFKYVKDRVDEVDHTNFKYNYSVIEGGPIGDTLEKISNEIKIVATPDGGSILKISNKYHTKGDHEVKAEQVKASKEMGETLLRAVESYLLAHSDAYN
As to B3, the factor by which affinity is lowered vs recombinant Bet v 1 in assay [1] came out at 2 fold.

B4: Bet v 1 Pro108Gly mutant (protein)
chain: GVFNYETETTSVIPAARLFKAFILDGDNLFPKVAPQAISSVENIEGNGGPGTIKKISFPEGLPFKYVKDRVDEVDHTNFKYNYSVIEGGPIGDTLEKISNEIKIVATGDGGSILKISNKYHTKGDHEVKAEQVKASKEMGETLLRAVESYLLAHSDAYN
With B4, the factor by which affinity is lowered vs recombinant Bet v 1 in assay [1] turned out to be 2 fold.

B5: Bet v 1 Triple-patch mutant (Asn28Thr, Lys32Gln, Glu45Ser, Pro108Gly) (protein)
chain: GVFNYETETTSVIPAARLFKAFILDGDTLFPQVAPQAISSVENISGNGGPGTIKKISFPEGLPFKYVKDRVDEVDHTNFKYNYSVIEGGPIGDTLEKISNEIKIVATGDGGSILKISNKYHTKGDHEVKAEQVKASKEMGETLLRAVESYLLAHSDAYN
For the molecule B5, the amount to reach 80% inhibition in assay [2] came out at 400 ng. In assay [1], the factor of decrease in affinity vs recombinant Bet v 1 (at 50% inhibition) came to 5 fold and the factor of decrease vs recombinant Bet v 1 (at 80% inhibition) was determined as 20 fold.
